Results published in paper PMC6994237, “HOPS recognizes each SNARE, assembling ternary trans-complexes for rapid fusion upon engagement with the 4th SNARE” (eLife, 2020).
Blank lines part the entries; values can stand above or below the binder they belong to.

B3: his6-Vam3 (full length), His6-tagged Qa SNARE (natural protein, S. cerevisiae, UniProt Q12241 1-283, looked up)
chain: MSFFDIEAQSSKGNSQQEPQFSTNQKTKELSNLIETFAEQSRVLEKECTKIGSKRDSKELRYKIETELIPNCTSVRDKIESNILIHQNGKLSADFKNLKTKYQSLQQSYNQRKSLFPLKTPISPGTSKERKDIHPRTEAVRQDPESSYISIKVNEQSPLLHNEGQHQLQLQEEQEQQQQGLSQEELDFQTIIHQERSQQIGRIHTAVQEVNAIFHQLGSLVKEQGEQVTTIDENISHLHDNMQNANKQLTRADQHQRDRNKCGKVTLIIIIVVCMVVLLAVLS
notes: Vam3, vacuolar Qa-SNARE, S. cerevisiae, full length; A 36 amino acyl linker stands between the his6 tag and the N-terminus (Izawa et al., 2012, PMID 22174414); also called His6-Qa; source: E. coli, purified; not shown: His6 (with a 36 amino acyl linker), N-terminal, kept

Columns and labels:
Settings in all cases: both partners purified
[1] = molecular target: T1, Qa-SNARE Vam3, full-length, wild-type (S. cerevisiae, UniProt Q12241 1-283); experiment: pull-down; GST-tagged R at 4 µM mixed with 4 µM of the other indicated full-length SNAREs in 20 mM HEPES-NaOH pH 7.4, 150 mM NaCl, 10% glycerol, 100 mM ß-octylglucoside; 1 hr 4°C; glutathione agarose 4B; Coomassie-stained gel
T1 construct: Vam3, vacuolar Qa-SNARE, S. cerevisiae, full length; Isolated as GST-Qa (Mima et al., 2008); also called GST-Qa; source: E. coli, purified; reconstituted into proteoliposomes
T1 sequence (looked up): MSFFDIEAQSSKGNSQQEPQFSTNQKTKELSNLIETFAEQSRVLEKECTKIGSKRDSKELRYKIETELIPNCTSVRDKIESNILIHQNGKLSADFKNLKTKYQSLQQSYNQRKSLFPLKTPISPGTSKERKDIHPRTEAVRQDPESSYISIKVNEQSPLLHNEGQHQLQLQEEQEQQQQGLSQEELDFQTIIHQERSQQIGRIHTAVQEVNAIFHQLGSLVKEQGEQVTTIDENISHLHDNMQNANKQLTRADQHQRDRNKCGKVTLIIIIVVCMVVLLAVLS

[2] = molecular target: T1, Qa-SNARE Vam3, full-length, wild-type; experiment: co-IP; Ypt7/R and Ypt7/QaQb proteoliposomes incubated 33 min with or without 50 nM HOPS and 4 μM Qc; solubilised in modified RIPA buffer with 5 μM GST-R; precipitated with anti-Qa antibody on protein A magnetic beads, 4°C 2 hr; immunoblot for R
[3] = molecular target: B3; experiment: pull-down; his6-tagged Qa or his6-tagged Qb at 4 µM mixed with 4 µM of the other indicated full-length SNAREs in 20 mM HEPES-NaOH pH 7.4, 150 mM NaCl, 10% glycerol, 100 mM ß-octylglucoside, 20 mM imidazole; 1 hr 4°C; nickel-NTA agarose; Coomassie-stained gel
[4] = molecular target: T2, Qc-SNARE Vam7, full-length, wild-type (inherently water-soluble) (S. cerevisiae, UniProt P32912 1-316); experiment: as above
T2 construct: Vam7, vacuolar Qc-SNARE, S. cerevisiae, full length; source: E. coli, purified
T2 sequence (looked up): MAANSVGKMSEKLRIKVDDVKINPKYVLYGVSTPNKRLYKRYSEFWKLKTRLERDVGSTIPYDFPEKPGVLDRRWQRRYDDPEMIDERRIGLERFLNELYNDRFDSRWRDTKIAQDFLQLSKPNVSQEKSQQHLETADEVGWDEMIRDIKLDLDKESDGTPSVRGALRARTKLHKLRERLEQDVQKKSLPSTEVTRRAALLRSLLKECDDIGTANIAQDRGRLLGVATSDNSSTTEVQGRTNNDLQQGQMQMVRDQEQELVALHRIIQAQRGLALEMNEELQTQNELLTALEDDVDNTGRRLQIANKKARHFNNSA

[5] = molecular target: T1, Qa-SNARE Vam3, full-length, wild-type; experiment: as above

B1: GST-Nyv1, GST-tagged full-length R SNARE (natural protein, S. cerevisiae, UniProt Q12255 1-253, looked up)
chain: MKRFNVSYVEVIKNGETISSCFQPFQKNENYGTITSANEQITPVIFHNLIMDMVLPKVVPIKGNKVTKMSMNLIDGFDCFYSTDDHDPKTVYVCFTLVDMPKILPIRILSGLQEYESNATNELLSSHVGQILDSFHEELVEYRNQTLNSSGNGQSSNGNGQNTISDIGDATEDQIKDVIQIMNDNIDKFLERQERVSLLVDKTSQLNSSSNKFRRKAVNIKEIMWWQKVKNITLLTFTIILFVSAAFMFFYLW
notes: Nyv1, vacuolar R-SNARE, S. cerevisiae, full length, cloned into pGST parallel1; Vector pGST parallel1 (Sheffield et al., 1999), BamHI/SalI; also called GST-R; GST-tagged R SNARE; source: E. coli Rosetta(DE3)pLysS, purified (glutathione-Sepharose 4B, in β-octylglucoside)
binding result [1]: binds

Binder: B3
binding result [4]: binds

Second part, the binder after the results:

binding result [2]: binds
binding result [3]: binds
B2: R-SNARE Nyv1, full-length, wild-type, untagged (natural protein, S. cerevisiae, UniProt Q12255 1-253, looked up)
chain: MKRFNVSYVEVIKNGETISSCFQPFQKNENYGTITSANEQITPVIFHNLIMDMVLPKVVPIKGNKVTKMSMNLIDGFDCFYSTDDHDPKTVYVCFTLVDMPKILPIRILSGLQEYESNATNELLSSHVGQILDSFHEELVEYRNQTLNSSGNGQSSNGNGQNTISDIGDATEDQIKDVIQIMNDNIDKFLERQERVSLLVDKTSQLNSSSNKFRRKAVNIKEIMWWQKVKNITLLTFTIILFVSAAFMFFYLW
notes: Nyv1, vacuolar R-SNARE, S. cerevisiae, full length; source: E. coli, purified; buffer exchanged into β-octylglucoside; reconstituted into proteoliposomes

binding result [5]: binds
B4: his6-Vti1 (full length), his6-tagged Qb SNARE (natural protein, S. cerevisiae, UniProt Q04338 1-217, looked up)
chain: MSSLLISYESDFKTTLEQAKASLAEAPSQPLSQRNTTLKHVEQQQDELFDLLDQMDVEVNNSIGDASERATYKAKLREWKKTIQSDIKRPLQSLVDSGDRDRLFGDLNASNIDDDQRQQLLSNHAILQKSGDRLKDASRIANETEGIGSQIMMDLRSQRETLENARQTLFQADSYVDKSIKTLKTMTRRLVANKFISYAIIAVLILLILLVLFSKFK
notes: Vti1, vacuolar Qb-SNARE, S. cerevisiae, full length; A 36 amino acyl linker stands between the his6 tag and the N-terminus (Izawa et al., 2012, PMID 22174414); also called his6-Qb; source: E. coli, purified; not shown: His6 (with a 36 amino acyl linker), N-terminal, kept

binding result [3]: binds
B5: Qb-SNARE Vti1, full-length, wild-type (natural protein, S. cerevisiae, UniProt Q04338 1-217, looked up)
chain: MSSLLISYESDFKTTLEQAKASLAEAPSQPLSQRNTTLKHVEQQQDELFDLLDQMDVEVNNSIGDASERATYKAKLREWKKTIQSDIKRPLQSLVDSGDRDRLFGDLNASNIDDDQRQQLLSNHAILQKSGDRLKDASRIANETEGIGSQIMMDLRSQRETLENARQTLFQADSYVDKSIKTLKTMTRRLVANKFISYAIIAVLILLILLVLFSKFK
notes: Vti1, vacuolar Qb-SNARE, S. cerevisiae, full length; the text names it Qb without a tag; also called GST-Qb; source: E. coli, purified; buffer exchanged into β-octylglucoside; reconstituted into proteoliposomes
